In the nanobody polyreactivity screen of Harvey et al. (2022):

experiment: yeast display, Sf9 membrane polyspecificity reagent, FACS + sequencing; frameworks hold sequencing errors
In short: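 A synthetic nanobody library was expressed on Saccharomyces cerevisiae BJ5465 by galactose induction for 36–48 hours. The library was stained for 1 hour at 4 °C with 10% biotinylated, detergent-solubilized Sf9 membrane reagent and enriched with streptavidin microbeads before FACS. Low and high (top ~1%) gates were set on anti-HA fluorescence for expression and streptavidin fluorescence for reagent binding, and each polyreactivity label reflects the gate of origin.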

| Sequence | polyreactivity (PSR sort gate) |
| --- | --- |
| QVQHVDSGGGLVQTGGSLLLSCAAYGRTFCVNDMGWYRQAAGKEREFVAAITWRGDSTYYADSVKGRFTISRDNAKNTVYLQMNSLKPEDSAVYYCNADVISLYDHPDYLYLFDYWGQGTQVTVSS | low polyreactivity |
| QVQLVESGGGLVQAGGSLRLSCAASGNIFRRYAMGWYRQAPGKDRELVAAISISGGNTYYADSVKGRFTISRDNAKNTVYLQMNSLKREDTAVYYCNARLRWYPGYDYWGQGTQVTVSS | high polyreactivity |
| QVQLVESGGGLVQAGGSLRLSCDASGRIFRVYAMGWYRQAHGKERQLVAAIRWTGGSTYYADSVKGRFKISRDNAKNTVYLQMNSLKPEDTAVYYCAAGRYYSDGSRTIYDYWGQGTQVTVSS | low polyreactivity |
| QVQLVESGGGLVQAGGSLRLSCAASGRTFSSNAMGWYRQAPGKERELVASISFRGGRTYYADSVKGRFTISRDNAKNTVYLQMYSLKPEDTAVYYCVSGTKRTGYGYWGQGTQVTVSS | high polyreactivity |
| QVQLVESGGGLDQAGGSLRLTCAASGSIFVYNAMGWYRQAPGKEREFVAAITWRGGRTYYADSVKGRFTISRDNAKNTVYLQMNSLKPEDTAVYYCAADGGSTLDYYWGQGTQVTVSS | low polyreactivity |
| QVQLVESGGGLVQAGGSLRLSCGASGRTFRRNAMGRYRQAPGKERELVAAIRWSSGSTYYADSVKGRFTISRDNAKNTVYLQMNSLKPEDTAVYYCAKRQWGGRESFDYWGQGTQVTVSS | low polyreactivity |
| QVQLVESGGGLVQEGASLRLICAASGRTSYRYAMGWNRQAPGKERELVAAISFGGGSTYYADSVKGRFTISRDYAKNTVYLQMNSLKPEDTAVYYCATDRVKYRNIYTDTGFDYWGQGTQVTVSS | high polyreactivity |
| QVQLVESGGGLVQAGGSLRLSCAASGSTIGAYAMGWYRPAPGKERELVAAISRRGGSTYYADSVKGRFTISRDNAKNTVYLQMNSLKPEDSAVYYCNAVGTRVDGEHYYWGQGTQVTVSS | high polyreactivity |
| QVQLVESGGGLVQAGGSLRLSCAASGRIFPVYAMGWYRQAPGKERELVATISYSGSSTYYADSVKGRFTISRDNAKNTVYLQMNSLKPEDTAVYYCNADAFGPPGVQYYYWGQGTQVTVSS | low polyreactivity |
| QVQLVESGGGLVQAGGSLRLSCAASGRTFCLNAMGWYRQAPGKERELVAAISKSDDSTYYADSVKGRFTISRDNAKNTVYLQMNSLKPEDTAVYYCNADYYGWWYDTDYIGGYDYDYWGQGTQVTVSS | low polyreactivity |
| QVQLVESGGGLVQAGGSLRLSCAASGRTFYRYAMGWYRQAPGKERELVATINWTSGSTNYADSVKGRFTISRDNAKNTVYLQMNSLKPEDTAVYYCAARGPVGYGWRYRPWHDYWGQGTQVTVSS | high polyreactivity |
| QVQLVESGGGLVQAGGSLRLSCAASGLTFRRNAMGWYRQAPGKERELVAAITARGTSTYYADSVKGRFSISRDNAKNTVYLQMNSLKPEDTAVYYCNVRWHRTRSEYDYWGQGTQVTVSS | high polyreactivity |
| QVQLVESGGGLVQAGGSLRLSCAASGSTSAYYAMGWYRQAPGKERELVAAISWSGGLTYYADSVKGRFTISRDNAKNTVYLQMNSLKPEDTAVYYCAASSYPYGYDYWGQGTQVTVSS | high polyreactivity |
| QVQLVESGGGLVQEGGSLRLSCAASGITFSVYTMGRYRQAPGKERELVASITRTGGSTYYADSVKGRFTISRDNAKNTVYLQMNSLNPEDTAVYYCAARRTVVTGRYYWGQGTQVTVSS | high polyreactivity |
| HVQLVESGGGLVQAGVSLRLSCAASGSIFSPYAMGGFRPAPGKERELLAAISSSGGSTYYADSVKRRFTISRDNAKNTVYLQMNSLKPEDTAVYYCAADSATGIFDRLNYWGQGTQVTVSS | high polyreactivity |
| QVQLVESGGGLVQAGGSLRLSCAASGITFGYYAMGWYRQAPGKERELVATITDGGGTKYADSVKGRFTISRDNAKNTVYLQMNSLKPEDTAVYYCAAGLRHVYATEYDYWGQGTQVTVSS | low polyreactivity |

| Sequence | polyreactivity (PSR sort gate) |
| --- | --- |
| QVQLVESGGGLVQAGGSLRLSCAASGRIFTPYAMGWYRQAPGKEREFVATISFRGDSTYYADSVKGRFTISRDNAKNSVYLQMNSLKPEDTAVYYCAARQYGGYGYWGQGTQVTVSS | high polyreactivity |
| QVQLVESGGGLVQARGSLRLSCAASGFTFQNNAMGWYRQAPGKERELVAAISRSGGSTYYADSVKGRFTISRDNANITVYLQMNSLKPEDTAVYYCAKSSGTLWITKYDYWGQGTQVTVSS | low polyreactivity |
| QVQLVESGGGLVQAGGSLRLSCAASGRIFGFYVMGWYRQAPGKERELVAAISSRGGSTYYADSVKGRFTISRDNAKNTVYLQMNSLKPEDTAVYYCAASVYREYYDNDDYWGQGTQVTVSS | high polyreactivity |
| QVQLVESGGGLVQAGVSLRLSCAASGFIFFPYVMGWYRQAPGKERELVARNTSGGGSTYYADSVKGRFTISRDNAKNTVYIQMNSLKPEDTAGYYCKARRIWYQSTFNYWGQGTQVTVSS | high polyreactivity |
| QVQLVESGGGLVQAGGSLRLSCAASGFIFYPYAMGWYRQAPGKERELVAVITSGGRTYYADSVKGRFTISRDNAKNTVYLQMNSLKPEDTAVYYCAARYGRIQWKANWPEYGYWGQGTQVTVSS | low polyreactivity |
| QDQHVESGGCLVQAGGSLRLSCAASGFTFYANAMGWYRQAPGKERELVAAISRGVSTTYADSVKGRFTISRDNSKNTVYLQMNSLTPEDTAVYYCAADGKVIAQGYDYWGQGTQVTVST | low polyreactivity |
| QVQLVESGGGLVQAGGSLRLSCAASGSIFRTYAKGWYRQAPGKERELVATITFGGVSTYYADSVKGRFTISRDNAKNTVYLQMNSLKPEDTAVYYCAADVYTRFWRVYRFDYWGQGTQVTVSS | low polyreactivity |
| QVQLVESGGGLDQAGGSLRLSCAASGRIFYYYALGWYRQAPGKERELVAAITWIGTSTYYADSVKGRFTISRDNGKNTVYLQMNSLKPEDTAVYYCAAEGWVGAWWYVLDVRYDYWGQGTQVTVSS | low polyreactivity |
| QVQLVESGGGLVQAGGSLRLSCAASGNIFYLYAMGCYRQAPGKEREFSTSYADSVKGRFTISRDNAKNTVYLQMNSLKPEDTAVYYCAAYKSRGPYYYLFDYWGQGTQVTVSS | low polyreactivity |
| QVQLVESGGGLVQAGGSLRLSCAASGIIFIFYDMGWYRQAPGKERELVATITSGTNTDADSVKGRFTISRDNAKNTVYLQMNSLKPEDTAVYYCAAGFSPASQLDYWGQGTQVTVSS | low polyreactivity |
| QVQLVESGGGLVQAGGSLRLSCAASGSILYTNAMGWYRQAPGKERELVAAITTSGASTYYADSVKGRFTISRDNAKNTVYLQMNSLKPEDTAVYDCAAPSRYRYYWGNYWGQGTQVTVSS | high polyreactivity |
| QVQLVESGGGLVQAGGSLRLSCAASGIILDPNAMGGYRQAPGKERELVAGITRSGVSTYYADSVKGRFTISRDNAKNTVYLQMKSLKPEDTAVYYCAKDRIYGSKGEDDDYWGQGTQVTVSS | low polyreactivity |
| QVQLVESGGGLVQAGGSLRLSCAASGRTFRFNAMGWYRQAPGKERELVAAISSRGGNTYYADSVKGRFTISRDNAKNTVYLQMNSLKPVDTSVYYCNKDLNYWGYAKYYGYYYWGQGTQVTVSS | high polyreactivity |
| QVQLVESGGGLFQAGGSLRITCAASGITFSYNAMGWYRQAPGKVRELVAGITWSGGSTYYADSVTGRFTISRDNAKNTVYLQMYSVKREDTAVYYCAASRSFPGYGLYYYWGQGTQVTVSS | low polyreactivity |
| QVQLVESGGGLVQAGGSLRLSCAASGFTFYQYAMGSYRQAPGKESEFVATISSGGSTYYADSVKGRFTISRDNAKNTFYLQMNSLIPEDTAVYYCAKVDFIVGYYYWGQGTQVTVSS | low polyreactivity |
| QVQLVESGGGLVQAGGSLRLSCAASGGNFTYNAMGWYRQAPGKERELVASISRGGGSTYYADSVKGRFTISRDNAKNTVYLQMNSLKPEDTAVYYCAASFIVGYYGYDYWGQGTQVTVSS | low polyreactivity |
